Measured values from publication PMC4360532.

System: Rev full-length wild-type (HIV-1 (HXB3?))
Assay: EMSA
Settings: 10 mM HEPES pH 7.5, 0.1 M KCl (0.3 M KCl and no tRNA for SYBR Green II assay), 1 mM MgCl2, 0.5 mM EDTA, 2 mM DTT, 10% glycerol, 50 ug/ml yeast tRNA, 0.2 mg/ml …

RRE full-length 234 nt
Kd: 0.145 nM
